# According to paper PMC5374404, “A key centriole assembly interaction interface between human PLK4 and STIL appears to not be conserved in flies” (Biology Open, 2017):
# “And” between values parts separate entries of the source, which are not always exact repeats. Equal values may be shown once. Ends that are not written are not given here.
# B1: human STIL coiled-coil domain (aa 717-758), tag cleaved (domain or fragment)
# chain: GGSGLSPDAYRFLTEQDRQLRLLQAQIQRLLEAQSLMPCSPKTTA
# notes: remnant left at the N-terminus of the CCD after TEV cleavage of the His-lipoyl tag; STIL, human, coiled-coil domain, residues 717-758; also called HsCCD; STIL CCD; source: E. coli C41, purified (Ni-NTA, TEV cleavage, reverse Ni-NTA, size exclusion); not shown: His, N-terminal, cleaved; lipoyl domain (B. stearothermophilus dihydrolipoamide acetyltransferase), N-terminal, cleaved
# B2: human STIL coiled-coil domain (aa 726-750), tag cleaved (domain or fragment)
# chain: GGSLTEQDRQLRLLQAQIQRLLEAQSLM
# notes: remnant left at the N-terminus of the CCD after TEV cleavage of the His-lipoyl tag; STIL, human, coiled-coil domain, residues 726-750; also called STIL^726-750; HsCCD; source: E. coli C41, purified (Ni-NTA, TEV cleavage, reverse Ni-NTA, size exclusion); not shown: His, N-terminal, cleaved; lipoyl domain (B. stearothermophilus dihydrolipoamide acetyltransferase), N-terminal, cleaved
# B3: human PLK4 Polo-Box-3 domain (aa 884-970), tag cleaved (domain or fragment)
# chain: GPMGSAQLLKSVFVKNVGWATQLTSGAVWVQFNDGSQLVVQAGVSSISYTSPNGQTTRYGENEKLPDYIKQKLQCLSSILLMFSNPTPNFH
# notes: remnant left at the N-terminus of the PB3 construct after 3C cleavage of the His-MBP tag; PLK4, human, Polo-Box-3 domain, residues 884-970; from an E. coli codon-optimised cDNA (Geneart); also called HsPB3; apoHsPB3; source: E. coli B834, purified (Ni-NTA, 3C cleavage, reverse Ni-NTA, size exclusion); not shown: His, N-terminal, cleaved; MBP, N-terminal, cleaved
# B4: His-lipoyl-tagged Drosophila Ana2 coiled-coil domain (aa 193-229) (protein)
# chain: NKSDLAALVSLVESVRHEQQQLRNLCEMILEQQQRAK
# modifications: also: His-lipoyl-tagged
# What was measured:
# [1] = target: the molecule itself; experiment: SEC-MALS; STIL CCD (aa 717-758) alone, 100 µl injected at 62 to 4000 µM over an S200 10/300 column; 50 mM Tris pH 7.5, 150 mM NaCl, 2 mM DTT, 0.4 ml/min
# [2] = target: the molecule itself; experiment: crystal structure; STIL 726-750 alone, 0.91 Å; sitting drop, 19°C; tetramer (dimer of dimers) generated by crystallographic symmetry
# [3] = target: the molecule itself; experiment: SEC-MALS; apo HsPB3 (aa 884-970) alone, 100 µl at 200 µM over a Superdex 200 10/300 column; 50 mM Tris pH 7.5, 150 mM NaCl, 2 mM DTT
# [4] = target: T1, Drosophila Sak/PLK4 Polo-Box-3 domain (aa 657-745), tag cleaved (Drosophila melanogaster (Fruit fly), UniProt O97143); experiment: analytical gel filtration
# T1 chain: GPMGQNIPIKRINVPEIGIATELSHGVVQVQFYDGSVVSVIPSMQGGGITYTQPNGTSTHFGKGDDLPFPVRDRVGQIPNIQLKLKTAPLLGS
binder,measurement,setting,value
B1,stoichiometry N,[1],≥ 2 and < 4
B2,stoichiometry N,[2],4
B3,stoichiometry N,[3],2
B4,binding result,[4],no binding
